# According to patent US20220333113:
# Residue numbers refer to the chain shown, from its start.
# Key:
# Assay in all cases: filter
# Settings in all cases: J = PPdU at every J; SB18T0.01 + 1 mM DTT, 37 C
# [1] = biological target: T1, RIG-I R664A (Homo sapiens) (UniProt O95786)
# T1 sequence: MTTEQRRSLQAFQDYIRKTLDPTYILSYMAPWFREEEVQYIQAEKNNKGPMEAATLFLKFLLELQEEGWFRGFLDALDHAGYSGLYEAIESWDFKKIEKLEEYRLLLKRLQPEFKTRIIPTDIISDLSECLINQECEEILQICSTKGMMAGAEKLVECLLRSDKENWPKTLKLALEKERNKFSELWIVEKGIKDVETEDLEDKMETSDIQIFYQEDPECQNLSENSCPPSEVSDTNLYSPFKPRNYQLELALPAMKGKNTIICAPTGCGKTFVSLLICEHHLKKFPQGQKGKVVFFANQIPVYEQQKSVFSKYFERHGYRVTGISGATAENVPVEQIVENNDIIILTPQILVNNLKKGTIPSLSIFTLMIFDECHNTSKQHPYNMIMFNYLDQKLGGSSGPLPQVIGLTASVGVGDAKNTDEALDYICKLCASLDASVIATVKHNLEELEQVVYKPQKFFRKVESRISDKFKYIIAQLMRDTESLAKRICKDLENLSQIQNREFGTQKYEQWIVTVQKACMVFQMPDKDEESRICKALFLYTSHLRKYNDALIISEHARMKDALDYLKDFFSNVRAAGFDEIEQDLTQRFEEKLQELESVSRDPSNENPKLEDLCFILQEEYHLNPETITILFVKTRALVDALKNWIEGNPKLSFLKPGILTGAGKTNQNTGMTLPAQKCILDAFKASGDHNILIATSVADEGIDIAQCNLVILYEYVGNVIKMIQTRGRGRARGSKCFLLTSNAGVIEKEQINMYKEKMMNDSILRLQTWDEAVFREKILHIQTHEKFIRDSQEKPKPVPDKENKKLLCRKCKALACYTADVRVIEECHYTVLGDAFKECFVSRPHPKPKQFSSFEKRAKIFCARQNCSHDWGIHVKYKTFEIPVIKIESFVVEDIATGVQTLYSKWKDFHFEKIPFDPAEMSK
# [2] = biological target: T2, RIG-I N668A (Homo sapiens) (UniProt O95786)
# T2 sequence: T1 sequence with A664R, N668A
# [3] = biological target: T3, RIG-I K849A (Homo sapiens) (UniProt O95786)
# T3 sequence: T1 sequence with A664R, K849A
sequence,measurement,setting,value
ATCTCTGTGTCATGTGTTTTAATGTCAGTTTAATGATGAGG [14832-55_8],Kd,[1],0.41 nM
same,Kd,[2],0.11 nM
same,Kd,[3],0.62 nM
